From a protein production outcome set (Wang et al. 2014) come the findings set out here.

The nature of the series: label from the status in PepcDB records.
Take “DFLDVQKETPRIRIAIDRVGVKNIKFPLKIHDDFAFLTLNLFVDVPADRKGADMSRAVESIQKVINAGSYGERIGDIGIAICDEALSRFNYSEKAQCEVNIQYYRRSGERYLEYRMYVETAKDRKQIMKNEIGISYVTMTACPCAMETTRALISMDNPDISDAISAIPTITHNQRNVTKLTVDNRSKMITVWDLADVMERVQGKPLDSLLKRVEEGRLVYSAHRNPKFVEDVVREIAYEAARVLGVPDEATIKVSSESDESIHPHNAYAEIDT”: the protein production entry is listed as “failed”.

In the case of “DGKVTKVFSSPLMARVQDLSSCAFPAPRISAEKTAAHEVDKDTITYTITVRNSGNLEATGTKFTDNLPGSYVPNSAKLNG”, the protein production result is given as “failed”.

On to “DGQTYQIGFEMRLPVSWNGRFLYQGNGGTDGNIATATGQVGSGGMLSNALKDGFAVISSDAGHSSAQNPLFGLDPQARINYGYGAITKLTPMAKDLIKTAYGKLPDRSYAGGTSNGGRHAMMAATRLGDQYDGILASTPGFHLPRAAAAQLYTAQQLRRVATDENDLSTALTYAERNVLANAILTRCDALDGVADGMVQDVEACRTAFDIHKDVPVCSGSRDGSCLSKDQIDVVANIYRGPVNSSGEALYATQPYDPGLLGSNWASWKFVSSVGTARDPVAVGIIFQVPPDPTIVQNSRKFAFNYNFDTDYPKLSATNSTYSESAMSFMIPPDELNLDKLRLHGGKMIVVQGTADGVFSVDDTQNWYDKLMAKYKSSSLGDAQSFARFYRVPGMNHSRGGLATDQFDALTALVNWVEYGQA”, for which the protein production entry is reported as “failed”.

For the sequence “DIEALTLLEIADPIREDAAETLEYLRSEDVTLKIISGDNPVTVSHIAHQAGFADYQSYIDCSKVSDEELEALAEDTAIFGRVSPHQKKLLIQTLNANGHTTAMTGDGVNDILALREADCSIVMAEGDPATRQIANLVLMDSEFKDIPE”, the protein production result is “failed”.

Regarding “DKCKKVYENYPVSKCQLANQCNYDCKLDKHARSGECFYDEKRNLQCICDYCEY”, the protein production entry is “not failed”.

With “DNAMEEEIQSIMKIERDLFLAIKNKEFVIHYQPKVDSSTGNIIGSEALIRWLHPSLGMVGPNKFIPIAEKNGLINNIGRWLIQEVFITINKWISEGINVLPVSINLSRVELYKNDLVDFFKLMFNTYNIPKELIELEITETTALRDVKFISERLYEIKSLGMNISLDDFGVGNSNFINLKGIPLDIIKIDRSLILDIVTNTKTKFMVKAIVNLSHDLNVTVICEGVEDMHQVKVLSELGCNFIQGYVFFKP”, the protein production result is recorded as “failed”.

As for “DNDAIYYPVGDVDIERGGPALEVGEEDVLVARSFNEEDYVLDTIAQYPNDPTLGKLTFMIDLKNQQKDQNVADFNGVGKSKLTMSLGYKDGNYPSESQVPIYTSQDVTAKYAVKLRLKGELLVSGDEWMIDYVYAQLASLFQPYPPANFPEVFMCKGGMKLGTFDSFRRTCTFDITYDRSDLSFSQLYFNLFINLAGQKRENRVRLRIDKESYFELYEQSEEM”, the protein production result is listed as “not failed”.

On to “DPAVLLDRAGRVIHLNAAAAQLAPALRVRELAQFALRSPEIVTALREAIATSEPRRVTYLDHGSIERWLELIIAPVQVPTAFGGTDQCMLMTFHDLTPLRRVEEMRADFVANASHELRTPLAALSGFIDTLQGQAR”, for which the protein production entry is “failed”.

Take “DPEEIMQVAVEKLGQGLGICRCVIYRCSADDTVATINHEFLGSGVGSIKGYPWPLKDNPLFQEVVVLKEAIAIDNIDRDPRLGEPEPSTGEVKTLVKSCAILSWMLVPIFYRERLLGMMEFHHCGPAPTEWEDDALTLVEGVATQIGVALIQAESYANLQELNEQLAALDRTRSNLVAITGHELRTP”: the protein production result is “failed”.

“DRCYNCGGLDHHAKECKLPPQPKKCHFCQSISHMVASCPLKAQQGPSAQG”: the protein production entry was “not failed”.

Regarding “DREREQHKREEAIQNFKALLSDMVRSSDVSWSDTRRTLRKDHRWESGSLLEREEKEKLFNEHIEALTKKKRE”, the protein production result is recorded as “not failed”.

Turning to “DTPEPYSEQDLWDWLRNSTDLQEPRPRAKRRPIVKTGKFKKMFGWGDFHSNIKTVKLNLLITGKIVDHGNGTFSVYFRHNSTGQGNVSVSLVPPTKIVEFDLAQQTVIDAKDSKSFNCRIEYEKVDKATKNTLCNYDPSKTCYQEQTQSHVSWLCSKPFKVICIYISFYSTDYKLVQKVCPDYNYHSDTPYFPSG”, the protein production entry was “failed”.

Turning to “DVAYELPAHTTRAQLSIDLVNNGDVEQQEKINSMRFIVFGSTPGGVRLDVNEHILLSTPETATDIDAQLLEVTSSNDILVVVIANEPQSLTSQLDGIANLLTLQEMIYDISSILNSDGQIISATGMPMTGVIRDISIAPDETKTVQMVIERAVARVDVFIEAIDGGAVTGYTAGSTSVTLHNFSHDSYFVMGNVGNGTRDNADSSKNYGKVKEDVSESNLLTHSWTAATTETWAYSSAPGAENRKLLCSFYTAERLFKSDYSDRLSISMANVLKGPSDVTGITGKVIESVTKVDGTGSPTAQPFTEIRRNNVYQVTARVGKIGIQILTISVEDWGERQDIDLDMDL”, the protein production entry is “not failed”.

Consider “DVRVKFEHRGEKRILQFPRPVKLEDLRSKAKIAFGQSMDLHYTNNELVIPLTTQDDLDKAVELLDRSIHMKSLKILLVINGSTQATNLEP”, for which the protein production entry is “not failed”.

Take “DWLDLNTTSSVETGQAIVTLDDAQIALNGIYRLASGHSYYGDNYWYYGDCRAADVQARITKGDGKRVSPYYEYNVLASDNLNIVLPWNTVYKVIRQTNNLIQKIESGSIQSSDTKELNRIKSEALVMRGLSLFNLTRLFGMPYTNDKGASLGVPIETSPSDPTHKPSRSTVAQCYEQVVSDMSNALSGLRQETSNGYINYWAAQALLSRVYLNMGEYQKAYDAATDVIKNNGGRYQLYSYEEYPNVWGQDFQSESLFELYITLSEPSGGTGGEGAPMVYANEATVDWNNLILSEDFLNLLNEDPKDVRHCLTKESVIENNTGLPAAAMHEKVYLAKFPGKTGDDPKTNNICIIRLSEVYLNAAEAGLKKGTDIEEAQGYLNDIISRRTTDTSQQVSTETFTLDRILKERRKELVGEGEVFYDYLRNGLAIERKGSWHLETLKASNAQKIEATDLRIALPIPQSEIDANPNIQQNPR”: the protein production result was “not failed”.

With “EADYKQATALELATLVREKKVTSEELVKIALAITKRENPTLNAVITLREEAALTEAKALQDTGQPFLGVPLLLKGLGQSLKGESNTNGFGFLQDQVAGGTSTFVKALQNAGFIIIGQTNYPELGWKNISDSKLYGVSVNPWNPNHYSGGSSGGAGASVAAAFVPIASGSDAGGSIRIPASWTGTVGLKPSRGVIIGNSNSAKGQTVHFGLSRTVADTNALFETLLTKKDLPAGHLSQAQPIAYTTESPAGTPISAEAKEAVAEAVAFLKDQGYTLVEVKHPVDGERLMKNYYTVAAGSAGIADFMARQKLKRPLERNDVELLTWALFQTGKNITSEETTAAWTDIALQAQAMDEFYQQYPILLTPTTAATAPSIDNPLLKPEHAAQMEKIDQLSPAEQKQLIYDQWLTAFTYTPFTQQANLFGHPALSVPTYVSKEGLPLGIQFNSALNEDRTLLQLGALFENNHK”, the protein production entry was “failed”.

Take “EAERVSVEHTSANPTGPLHIGRARNSIIGDSIYRILSRYGYRTVRQYFVNDSGKQMISLYTAYIKYGGPITIENLLENYQKIYREMEKDQSIEKEIEKNIERYENADPEVFGTLRKIAGVMLDGIASTLKRIGIEFDEFDWESDLLLNGSVRKAIDMLETKEEDSARYIEISGKKVFLTRKDGTTLYFARDIAYHLFKAENSEWIIDVLGEDHKDHAKSLNHVLKEMLKLENRVSFMYYSFITLETGKMSTRRGNIVTLQDLVDRTYDEALKIVNEKRPDLSEEERKKIAEVIASSAVRYSIIRVSAPKPITFRWEEALNFESNSAPFIMYS”: the protein production result was “failed”.

Consider “EAGYEAGTEYLNLDEQPATILDAEHLGIETKEPITIIERLRTANHKPVVYCLDKIAKTYLTCTDYQQSSGSMLEAIKASTNHQIMHAEMDLEAISYEPHISEVLNASPHEGLMLLKVVHYDEKHQPILYSLNYIKSSLVKFTITKSE”, for which the protein production entry is listed as “not failed”.

Take “EDLSAQPVQTKFPAYERVVLREAGFLRPVTIFGPIADVAREKLAREEPDIYQIAKSEPRDAGTDQRSSGIIRLHTIKQIIDQDKHALLDVTPNAVDRLNYAQWYPIVVFLNPDSKQGVKTMRMRLCPESRKSARKLYERSHKLRKNNHHLFTTTINLNSMNDGWYGALKEAIQQQQNQLVWVSEGKADGAT”: the protein production result is listed as “failed”.

Consider “EEWLDILGNGLLRKKTLVPGPPGSSRPVKGQVVTVHLQTSLENGTRVQEEPELVFTLGDCDVIQALDLSVPLMDVGETAMVTADSKYCYGPQGSRSPYIPPHAALCLEVTLKTAVDRPDLEM”, for which the protein production result is “not failed”.
